Assay results reported in US20030224453A1, “Structural models for cytoplasmic domains of transmembrane receptors” (priority 1998, published 2003).
Ends that are not written are not given here.

T1: integrin β3 cytoplasmic domain (Homo sapiens, UniProt P05106)
T1 sequence (P05106 742-788 limits assumed): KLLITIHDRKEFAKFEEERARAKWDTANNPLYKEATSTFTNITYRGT

T2: Full-length β3 peptide (β3 cytoplasmic tail) (UniProt P05106 742-788, limits assumed)
T2 construct: domain: cytoplasmic domain; also called wild-type β3
T2 peptide (looked up): T1 sequence (P05106 742-788 limits assumed)

B1: G4-β1A: β1A construct with three additional glycines between heptad repeats and cytoplasmic domain (protein)
chain: GSSHHHHHHSSGLVPRGSHMKLEALEGRLDALEGKLEALEGKLDALEGGGGKLLMIIHDRREFAKFEKEKMNAKWDTGENPIYKSAVTTVVNPKYEGK
B2: G1-β1A: His-tag, four heptad repeats, one glycine, β1A integrin cytoplasmic domain (protein)
chain: GSSHHHHHHSSGLVPRGSHMCGKLEALEGRLDALEGKLEALEGKLDALEGKLLMIIHDRREFAKFEKEKMNAKWDTGENPIYKSAVTTVVNPKYEGK
B3: Cytoplasmic domain of integrin α5 (peptide, UniProt P08648 1022-1049, looked up)
peptide: KLGFFKRSLPYGTAMEKAQLKPPATSDA
notes: domain: cytoplasmic domain
B4: Cytoplasmic domain of integrin α4 (peptide, UniProt P13612 1001-1032, looked up)
peptide: KAGFFKRQYKSILQEENRRDSWSYINSKSNDD
notes: domain: cytoplasmic domain
B5: αIIb heptapeptide RPPLEED (peptide)
peptide: RPPLEED
B6: αIIb peptide NRPPLEEDD (peptide)
peptide: NRPPLEEDD
B7: αIIb peptide KVGFFKRNRPPLEEDDEEGQ (peptide)
peptide: KVGFFKRNRPPLEEDDEEGQ
B8: αIIb peptide KVGFFKRNRPPLEEDD (peptide)
peptide: KVGFFKRNRPPLEEDD
B9: αIIb peptide KRNRPPLEEDDEEGQ (peptide)
peptide: KRNRPPLEEDDEEGQ
B10: αIIb peptide NRPPLEEDDEEGQ (peptide)
peptide: NRPPLEEDDEEGQ

What follows are molecules tested against talin (Homo sapiens, UniProt Q9Y490) (assay: Affinity chromatography of cell lysates on cytoplasmic domain mimics, talin detected). Details: NHS-biotin-labeled human platelet lysates; result in words.
Chain of talin (Q9Y490 whole entry, the tested form may be a part): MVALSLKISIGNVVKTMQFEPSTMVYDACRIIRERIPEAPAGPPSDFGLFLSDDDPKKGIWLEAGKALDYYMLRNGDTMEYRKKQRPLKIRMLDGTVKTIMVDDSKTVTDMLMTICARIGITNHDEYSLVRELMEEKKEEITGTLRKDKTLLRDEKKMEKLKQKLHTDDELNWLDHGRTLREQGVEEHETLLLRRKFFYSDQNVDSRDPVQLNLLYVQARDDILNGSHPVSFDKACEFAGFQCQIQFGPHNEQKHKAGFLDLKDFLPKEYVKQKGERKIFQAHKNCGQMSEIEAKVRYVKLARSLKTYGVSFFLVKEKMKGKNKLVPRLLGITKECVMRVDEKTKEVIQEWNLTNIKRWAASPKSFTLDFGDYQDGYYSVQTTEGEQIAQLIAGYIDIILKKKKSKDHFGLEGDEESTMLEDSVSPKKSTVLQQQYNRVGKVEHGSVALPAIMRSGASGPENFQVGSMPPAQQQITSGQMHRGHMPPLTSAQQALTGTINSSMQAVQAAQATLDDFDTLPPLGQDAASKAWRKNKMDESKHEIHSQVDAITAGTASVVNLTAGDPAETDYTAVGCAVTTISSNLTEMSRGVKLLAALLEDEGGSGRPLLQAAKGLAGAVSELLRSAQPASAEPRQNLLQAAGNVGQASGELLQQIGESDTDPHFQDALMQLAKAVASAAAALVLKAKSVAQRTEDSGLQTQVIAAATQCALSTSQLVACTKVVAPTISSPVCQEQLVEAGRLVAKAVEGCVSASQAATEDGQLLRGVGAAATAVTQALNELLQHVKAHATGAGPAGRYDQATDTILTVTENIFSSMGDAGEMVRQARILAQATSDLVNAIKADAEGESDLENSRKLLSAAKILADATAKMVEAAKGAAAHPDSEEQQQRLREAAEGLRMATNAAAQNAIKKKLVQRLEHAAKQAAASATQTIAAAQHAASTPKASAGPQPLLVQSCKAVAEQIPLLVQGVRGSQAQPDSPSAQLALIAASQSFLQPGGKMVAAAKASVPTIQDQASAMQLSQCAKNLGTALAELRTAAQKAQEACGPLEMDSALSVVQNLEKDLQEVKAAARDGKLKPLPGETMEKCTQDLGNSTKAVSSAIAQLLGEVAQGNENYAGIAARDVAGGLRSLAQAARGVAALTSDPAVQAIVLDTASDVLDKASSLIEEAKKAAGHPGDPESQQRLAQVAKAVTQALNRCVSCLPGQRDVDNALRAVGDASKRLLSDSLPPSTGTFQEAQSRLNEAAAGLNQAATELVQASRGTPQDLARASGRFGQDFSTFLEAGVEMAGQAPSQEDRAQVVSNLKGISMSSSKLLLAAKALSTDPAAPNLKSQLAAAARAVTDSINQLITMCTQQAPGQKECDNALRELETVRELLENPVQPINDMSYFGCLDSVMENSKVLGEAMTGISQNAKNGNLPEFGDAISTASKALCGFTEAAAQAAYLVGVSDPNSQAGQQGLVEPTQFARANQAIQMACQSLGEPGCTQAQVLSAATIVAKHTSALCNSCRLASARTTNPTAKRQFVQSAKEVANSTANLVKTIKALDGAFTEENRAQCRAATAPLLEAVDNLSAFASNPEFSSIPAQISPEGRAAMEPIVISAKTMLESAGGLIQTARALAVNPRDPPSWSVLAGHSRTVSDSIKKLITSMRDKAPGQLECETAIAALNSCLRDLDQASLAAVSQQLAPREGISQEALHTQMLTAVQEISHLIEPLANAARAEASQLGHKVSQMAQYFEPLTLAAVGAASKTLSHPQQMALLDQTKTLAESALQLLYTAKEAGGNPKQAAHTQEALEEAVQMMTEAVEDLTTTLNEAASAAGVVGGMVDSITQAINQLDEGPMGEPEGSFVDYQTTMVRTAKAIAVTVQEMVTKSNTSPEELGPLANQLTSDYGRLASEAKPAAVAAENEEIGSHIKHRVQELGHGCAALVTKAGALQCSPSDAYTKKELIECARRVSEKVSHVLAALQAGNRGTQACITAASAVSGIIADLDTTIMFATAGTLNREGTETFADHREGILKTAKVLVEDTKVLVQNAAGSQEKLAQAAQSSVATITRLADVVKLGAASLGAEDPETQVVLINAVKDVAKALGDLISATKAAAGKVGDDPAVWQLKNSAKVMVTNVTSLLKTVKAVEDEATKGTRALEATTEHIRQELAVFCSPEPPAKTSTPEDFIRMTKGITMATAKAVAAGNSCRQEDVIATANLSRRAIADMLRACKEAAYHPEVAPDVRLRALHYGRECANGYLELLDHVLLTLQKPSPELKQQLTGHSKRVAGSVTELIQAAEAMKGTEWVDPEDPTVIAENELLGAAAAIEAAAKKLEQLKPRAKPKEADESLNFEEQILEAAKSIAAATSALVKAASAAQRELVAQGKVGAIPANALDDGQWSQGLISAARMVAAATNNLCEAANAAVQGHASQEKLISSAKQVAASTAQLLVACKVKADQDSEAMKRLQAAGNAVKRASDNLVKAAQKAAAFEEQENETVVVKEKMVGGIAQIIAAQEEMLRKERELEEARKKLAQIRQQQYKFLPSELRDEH
Format: binding
Parameters: endogenous in cells; host or cells: human platelets (also Jurkat, HT1080, mouse C2C12 myotubes)
Text: To study possible influences of the structural changes induced by the Gly insertions, protein models were produced having the β1A cytoplasmic domain with one, two and three additional Gly residues inserted after the heptad-repeat motif (G2-, G3-, G4-β1A) and compared with the G1-β1A construct. As an additional control, a variant of the G4-β1A peptide was produced with a Tyr to Ala substitution in the membrane-proximal NPXY-motif (G4-β1A-Y788A) (FIG. 1). This mutation interferes with focal adhesion targeting and activation of integrins. The purified proteins were bound via their N=terminal His-Tag to a Ni^2+−resin and used in affinity chromatography experiments with lysates of NHS-biotin-labeled human platelets. Marked changes in the pattern of protein binding were observed as a consequence of the Gly insertions. Polypeptides migrating at 45, 56, 58, 140 and 240 kDa bound only to the mimics with Gly insertions. […] Using monoclonal antibodies, the 240 kDa and 45 kDa proteins were identified as filamin and actin, respectively. […] Talin bound to the G1- and G4-β1A construct but not to the Y788A-G4β1A construct. Thus, the structural changes in the model induced by the insertion of glycines into the coiled-coil motif and the integrin cytoplasmic domain sequence alter interactions of these proteins with cellular components. Alterations of the β1A tail that block cytoskeletal interactions, such as the Y788 mutation and β1B- and β1C-splice variants also abrogate binding to talin and filamin. Consequently, the observed in vitro interactions are likely to be biologically relevant.
Human platelets were obtained by centrifugation of freshly drawn blood samples at 1000 rpm for 20 minutes and sedimentation of the resulting platelet-rich plasma at 2600 rpm for 15 minutes. They were washed twice with 0.12 M NaCl, 0.0129 M trisodium citrate, 0.03 M glucose, pH 6.5, and once in Hepes-Saline (3.8 mM Hepes, 137 mM NaCl, 2.7 mM KCl, 5.6 mM D-Glucose, 3.3 mM Na2HPO4, pH 7.3-7.4). […]

Row | talin binding from cell lysates | Molecule
1 | bound | B1
2 | bound | B2

These molecules were tested against T1, integrin β3 cytoplasmic domain (assay: Immunochemical ELISA: αIIb peptides added to fixed saturating β3 peptide, competition for anti-model protein antibody binding to coated αIIbβ3 (EC50 determination)). Details: dose of αIIb peptide resulting in B/B0=0.5 with fixed saturating β3 peptide (20-50 nM).
Text: Antibodies raised against a mimic of the present invention were used in an immunochemical assay to identify compounds that bind to the 3 cytoplasmic domain and induce a conformation change. In this assay, the binding of the αIIb and β3 cytoplasmic tails was first analyzed. […] Furthermore, as shown in this Table, point mutations or deletions that disrupted this heptapeptide sequence in the αIIb cytoplasmic domain also disrupted interaction with β3.
αIIbβ3 was purified by gel filtration in accordance with procedures described by Du et al. (Cell 65:409-416 (1991)) with omission of the heparin and Con A affinity chromatography steps. The final product was greater than 95% homogenous as judged by SDS PAGE. In the enzyme-linked immunosorbent assay (ELISA) the αIIbβ3 was used at a concentration of 5 μg/ml in a coating buffer containing 0.1 M NaHCO3 and 0.05% NaN3. Fifty ul/well was used to coat IMMULON II microtiter wells at 4° C. overnight. After removal of the coating solution, 150 Al blocking buffer (coating buffer containing 5% bovine serum albumin) was added. After an additional one hour incubation at 4° C., the blocking buffer was removed and the plates were washed three times with wash buffer (0.01 M Tris, 0.15 M NaCl, 0.01% thimerisol, 0.05% Tween 20, pH 8.0). Twenty-five microliters of the competitor was added to each well followed by 25 μl of a dilution of the anti-model protein antibody. Following mixing, the plate was covered for one hour at 37° C. and washed four times with wash buffer. To quantify bound antibody, 50 μl of horseradish peroxidase-conjugated goat anti-rabbit IgG (Biorad) was diluted to a concentration of 1/1000 in wash buffer containing 1 mg/ml bovine serum albumin. These plates were then incubated at 37° C. for 1.5 hours. After four washes, bound antibody was assayed by measuring peroxidase activity with O-phenylenediamine as a substrate and quantifying reaction product by its optical density at 490 nm. Data were expressed as B/B0 where B=A490 in the presence of competitor and B0=A490 in its absence. In some experiments, varying concentrations of αIIb peptides were added to a fixed, saturating, quantity of β3 peptide (20-50 nM). Competition was again expressed as B/BO, however, B0 was the A490 in the presence of the β3 peptide and no added αIIb peptide. EC50 was defined as the dose of αIIb resulting in B/B0=0.5.

Row | EC50 [nM] | Molecule
3 | > 1000 | PLEEDDEEGQ
4 | > 1000 | KVGFFPLEEAAEEGQ
5 | > 1000 | KVGFFKRNRPPLEE
6 | > 1000 | KVGFFKRNRPPLEEAAEEGQ
7 | > 1000 | PPLEED [PPLEED]

Same assay, conditions: result in words

Row | Molecule | interaction with β3 cytoplasmic tail (induces conformation change seen by antibody)
8 | full-length αIIb peptide: full-length linear peptide of the αIIb cytoplasmic domain (KVGFFKRNRPPLEEDDEEGE) | apparent affinity of the interaction was high

Target: T2, Full-length β3 peptide (β3 cytoplasmic …)
Experiment: competitive ELISA with β3 peptide and anti-model protein antibody on coated αIIbβ3
Details: not given

Row | binding result | Molecule
9 | no binding | B3
10 | no binding | B4

Target: T2, Full-length β3 peptide (β3 cytoplasmic …)
Experiment: αIIb peptide titrated with fixed saturating β3 peptide; inhibition of antibody binding to coated αIIbβ3 (ELISA), EC50 at B/B0=0.5
Details: not given

Row | EC50 [nM] | Molecule
11 | 30 | B5
12 | 20 | B6
13 | 3 | B7
14 | 5 | B8
15 | 6 | B9
16 | 8 | B10

What follows are molecules tested on platelet αIIbβ3 (assay: ELISA: inhibition by competitor of anti-mimic antibody reactivity with native platelet αIIbβ3). Details: antibody raised against FIG. 2 heterodimeric mimic; result in words.
Format: binding, human
Procedure: Antibodies against these heteromeric complexes of the present invention that recognize combinatorial epitopes of the cytoplasmic domains of the complex can be produced in accordance with well known techniques. For example, antibodies were prepared against the heterodimeric complex of FIG. 2. […] Thus, this antibody recognized combinatorial epitopes in the cytoplasmic domain of the native receptor that were mimicked in the model protein.
Antibodies to the model protein depicted in FIG. 2 were raised in 2.5 kg New Zealand white rabbits. One hundred microliters of a water solution containing 1 mg/ml of the model protein was emulsified in 1 ml incomplete Freund's adjuvant and administered subcutaneously to each New Zealand white rabbit. Two additional injections at 2-week intervals were followed by bleeding (approximately 50 mls) at monthly intervals until the rabbits were sacrificed. Blood was permitted to clot at room temperature, and the serum was recovered by centrifugation. Serum was heat inactivated at 56° C. for 30 minutes and stored at −20° C. A pre-immune serum, obtained prior to immunization, was used as a control.
αIIbβ3 was purified by gel filtration in accordance with procedures described by Du et al. (Cell 65:409-416 (1991)) with omission of the heparin and Con A affinity chromatography steps. […] To quantify bound antibody, 50 μl of horseradish peroxidase-conjugated goat anti-rabbit IgG (Biorad) was diluted to a concentration of 1/1000 in wash buffer containing 1 mg/ml bovine serum albumin. […] After four washes, bound antibody was assayed by measuring peroxidase activity with O-phenylenediamine as a substrate and quantifying reaction product by its optical density at 490 nm. Data were expressed as B/B0 where B=A490 in the presence of competitor and B0=A490 in its absence. In some experiments, varying concentrations of αIIb peptides were added to a fixed, saturating, quantity of β3 peptide (20-50 nM). Competition was again expressed as B/BO, however, B0 was the A490 in the presence of the β3 peptide and no added αIIb peptide. […]

Row | Molecule | inhibition of antibody reactivity with platelet αIIbβ3
17 | full-length αIIb peptide: full-length linear peptide of the αIIb cytoplasmic domain (KVGFFKRNRPPLEEDDEEGE) | not inhibited
18 | full-length β3 peptide: full-length linear peptide of the β3 cytoplasmic domain (KLLITIHDRKEFAKFEEERARAKWDTANNPLYKEATSTFTNITYRGT) | only partially inhibited
19 | β3 (Y747A) mutant: mutant of the β3 cytoplasmic domain, Y747A (KLLITIHDRKEFAKFEEERARAKWDTANNPLAKEATSTFTNITYRGT) | completely inhibited
